According to US12201699, “Compositions and methods for promoting homology directed repair” (Editas Medicine, Inc.):

Molecular target: Tet Repressor (TetR) (UniProt P04483 P04483:1-207)
Experiment: EMSA; lacks Tet operator; 500 nM TetR, 50 nM DNA, 300 mM NaCl, pH 7.7
Conditions: chain copies: 2 (inferred)
Text: The nucleotide sequence to which the Tet Repressor protein binds, typically consists of several repeats (5 or more) of the Tet Operator (TetO)19 base pair sequence, each followed by a 17 bp spacer. Here, we evaluated the binding of the Tet repressor protein to several Tet Operator sequence-containing variants that included spacer sequences of differing sizes, or no spacer sequences. Specifically, we investigated […] To test the binding capacity of the Tet Operator sequence-containing variants experimentally, 500 nM of recombinant TetR protein (Imgen BioSciences, Inc.; Cat. No. P-1002-0.5 mg) was incubated with 50 nM of template DNA in binding buffer (50 mM HEPES, 20% glycerol, 300 mM NaCl, pH 7.7) and protein binding to the Tet Operator sequence-containing variants was analyzed using an electrophoretic mobility shift assay using a 10% polyacrylamide gel (FIG. 8B).

Tet Repressor (TetR), sequence (P04483 whole entry, one chain of several): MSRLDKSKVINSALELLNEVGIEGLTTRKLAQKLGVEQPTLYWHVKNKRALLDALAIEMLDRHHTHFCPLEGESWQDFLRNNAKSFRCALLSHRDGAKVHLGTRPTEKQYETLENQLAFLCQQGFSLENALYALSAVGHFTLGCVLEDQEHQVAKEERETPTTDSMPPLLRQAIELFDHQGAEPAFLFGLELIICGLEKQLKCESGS

B1: ssODN-109 (control) (ssDNA)
DNA: AACAGACACCATGGTGCATCTGACTCGTGTGGAGAAGTCGGCCGTTACTGCCCTGCAGGGCAAGCTTAACGTGGATGAAGTTCGTGGTGAGGCCCTGGGCAGGTTGGTA
B1: no binding.

B2: ssODN-179 (control) (ssDNA)
DNA: TGCTTCTGACACAACTGTGTTCACTAGCAACCTCAAACAGACACCATGGTGCATCTGACTCGTGTGGAGAAGTCGGCCGTTACTGCCCTGCAGGGCAAGCTTAACGTGGATGAAGTTCGTGGTGAGGCCCTGGGCAGGTTGGTATCAAGGTTACAAGACAGGTTTAAGGAGACCAATAG
B2: no binding.
